Residue numbers refer to the chain shown, from its start.
B1: nCoV-7 mAb (antibody, V domains shown)
VH: QEQVVESGGGVVQPGKSLRLSCAASGFSLNDFAIHWVRQAPGKRLEWVAIISYDGRVKFYADSVKGRFTISRDSSVHLQMDSLRPEDTGLYYCARDSSWQSTGWPINWFDRWGRGTLVTVSS
VL: EIVLTQSPATLSLSPGQRATLSCRASQSVLSSLAWYQHKPGQAPRLLIYDASSRATGVPARFSGSGSETDFTLTISSLEPEDFAVYYCQQRSNWPPTFGQGTKVEIK
B2: nCoV-2 mAb (antibody, V domains shown)
VH: DVQLLESGGGLVQPGGSLRLSCAASGFSFSSYAMTWVRQAPGKGLEWVATMSASGDSTNDADSVKGRFTISRDNSKNTLFLQMNSLRPEDTAVYYCASPLRNYGDLLYWGQGTLVTVSS
VL: DIQMTQSPSTLSASVGDRVTITCRASQNIHRFLAWYQQKPGKAPKLLIYTASSLESGVPSRFSGSGFGTEFTLTISSLQPDDFATYYCQQYNSYSWTFGQGTKVEIK
B3: nCoV-5 mAb (antibody, V domains shown)
VH: QMQLVQSGPEMKKPGTSVKVSCKASGFTFSKTTLQWVRQARGQRPEWIGWIVLGSGNTNYAHYFQARVTITRDMSTSTAYMELSSLSSEDTAVYYCAAEMATIQNYYYYYGMDVWGQGTTVTVSS
VL: DIQMTQSPSSLSASVGDRVTITCRASQSINYYLNWYQQKPGKAPNLLIYAASSLPGGVPSRFSGSGSGTDFTLTITSLQPEDFATYFCQQSYSTPPTFGQGTKLEIK
B4: nCoV-4 mAb (antibody, V domains shown)
VH: QVQLVESGGGVVQPGRSLRLSCEASGFTLRTSSLHWVRQAPGKGLEWVAVISNDGATKFYADAVKGRFTISRDNSNNKIYLQLNGLKPEDTAVYYCARETRHYSHGLNWFDPWGQGTLVNVSS
VL: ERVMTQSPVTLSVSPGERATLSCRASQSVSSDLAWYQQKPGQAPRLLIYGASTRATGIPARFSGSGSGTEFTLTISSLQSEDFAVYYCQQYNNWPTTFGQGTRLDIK
B5: nCoV-9 mAb (antibody, V domains shown)
VH: QVLLVESGGGVVQPGMSLRLSCAASGFTFSSYAMHWVRQAPGKGLEWVAVISYDGSTKFYADSVRGRFPISRDNSKNTVYLQMNSLRPEDTAVYYCATVSVEGYTSGWYLGTLDFWGQGTPVTVSS
VL: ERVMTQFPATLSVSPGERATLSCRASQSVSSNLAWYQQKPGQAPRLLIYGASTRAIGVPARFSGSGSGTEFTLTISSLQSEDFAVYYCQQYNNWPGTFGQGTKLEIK
B6: nCoV-6 mAb (antibody, V domains shown)
VH: QVTLKESGPVLVKPTETLTLTCTVSVFSLSNARMGVSWIRQPPGKALEWLAHIFSSDQKSYSTSLKSRLTISKDTSKSQVVLTMTNMDPEDTGTYYCARINTAAYDYDSTTFDIWGQGTMVTVSS
VL: DIQMTQSPSSLSASVGDRVTITCRASQTISNYLNWYQQKPGKAPKLLLYAASSLQSGVPSRFSGSGSGTDFTLTISSLQLEDFATYYCQQSYSTPPTFGGGTKVEIK
B7: nCoV-8 mAb (antibody, V domains shown)
VH: EVLLVESGGGLVQPGRSLRLSCVVSGFTFDYYAMHWVRQAPGKGLEWVSGISWNSDNTDYADSVKGRFTISRDNAKNSLYLQMNSLKTEDTALYYCAKDISLVFWSVNPPRNGMDVWGQGTTVTVSS
VL: B6 VL with T28S, S30R, N31S, K45N, L48I, A50T, L80P, T94S, P96L
B8: nCoV-3 mAb (antibody, V domains shown)
VH: EVQLLESGGGLVQPGGSLRLSCTASGFTFASYAMTWVRQAPGKGLEWVSTISGGGGDTYSADSVKGRFTISRDNSKSTLYLQMNSLRAADTALYYCARLESATQPLGYYFYGMDVWGQGTTVTVSS
VL: SYELTQPPSVSVSPGQTARITCSGDALPKQYAFWYQQRPGQAPVLVISKDSERPSGIPERFSGSSSGTTVTLTISGVQAEDEADYYCHSADISATSWVFGGGTKLTVV

Assays:
[1] = biological target: SARS-CoV S protein (Urbani strain) expressed on ExpiCHO cells (SARS-CoV, UniProt P59594 14-1255); experiment: flow cytometry on ExpiCHO cells transfected with SARS-CoV S
[2] = biological target: T1, MERS-CoV S protein (London1/2012) expressed on ExpiCHO cells (MERS-CoV, UniProt K9N5Q8 18-1353); experiment: flow cytometry on ExpiCHO cells transfected with MERS-CoV S
T1 sequence: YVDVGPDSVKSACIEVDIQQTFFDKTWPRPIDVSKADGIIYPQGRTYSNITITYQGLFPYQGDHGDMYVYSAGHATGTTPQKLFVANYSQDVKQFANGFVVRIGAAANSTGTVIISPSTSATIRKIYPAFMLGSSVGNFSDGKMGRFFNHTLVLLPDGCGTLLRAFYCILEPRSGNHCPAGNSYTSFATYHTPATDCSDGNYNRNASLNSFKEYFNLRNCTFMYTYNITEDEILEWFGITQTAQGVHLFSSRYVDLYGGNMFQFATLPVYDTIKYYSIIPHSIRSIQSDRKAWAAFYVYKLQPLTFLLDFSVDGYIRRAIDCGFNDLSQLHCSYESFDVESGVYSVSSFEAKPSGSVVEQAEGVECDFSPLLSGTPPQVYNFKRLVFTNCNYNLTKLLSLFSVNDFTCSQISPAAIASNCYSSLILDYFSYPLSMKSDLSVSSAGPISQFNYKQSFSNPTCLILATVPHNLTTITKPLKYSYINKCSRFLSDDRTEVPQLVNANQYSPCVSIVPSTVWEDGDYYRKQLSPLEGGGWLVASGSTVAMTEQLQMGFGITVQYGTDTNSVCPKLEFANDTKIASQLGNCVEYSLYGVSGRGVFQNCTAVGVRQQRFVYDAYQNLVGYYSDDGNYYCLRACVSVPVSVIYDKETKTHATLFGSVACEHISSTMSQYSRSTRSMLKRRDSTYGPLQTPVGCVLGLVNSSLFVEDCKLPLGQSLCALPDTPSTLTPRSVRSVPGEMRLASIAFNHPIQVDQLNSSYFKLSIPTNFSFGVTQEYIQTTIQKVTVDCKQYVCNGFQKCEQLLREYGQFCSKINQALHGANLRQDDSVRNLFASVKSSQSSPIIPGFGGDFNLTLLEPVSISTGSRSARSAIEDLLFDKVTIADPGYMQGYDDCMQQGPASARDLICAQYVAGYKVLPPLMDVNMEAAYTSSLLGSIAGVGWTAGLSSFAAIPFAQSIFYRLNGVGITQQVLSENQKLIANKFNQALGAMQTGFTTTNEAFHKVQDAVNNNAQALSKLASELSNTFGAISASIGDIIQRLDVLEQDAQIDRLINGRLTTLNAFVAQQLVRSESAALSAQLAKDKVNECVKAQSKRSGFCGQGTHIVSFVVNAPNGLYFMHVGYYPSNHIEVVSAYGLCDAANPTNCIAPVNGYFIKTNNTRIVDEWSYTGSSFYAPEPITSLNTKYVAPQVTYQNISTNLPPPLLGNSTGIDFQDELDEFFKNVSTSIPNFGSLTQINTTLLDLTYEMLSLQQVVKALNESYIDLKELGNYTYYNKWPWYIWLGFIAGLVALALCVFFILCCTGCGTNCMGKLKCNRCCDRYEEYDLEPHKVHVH

Binder | binding result [1] | binding result [2]
B1 | binds | no binding (tested: 2 µg/ml)
B2 | binds | no binding (tested: 10 µg/ml)
B3 | binds | no binding (tested: 1 µg/ml)
B4 |  | no binding (tested: 10 µg/ml)
B5 | binds | no binding (tested: 8.5 µg/ml)
B6 | binds | no binding (tested: 10 µg/ml)
B7 | binds | no binding (tested: 1.5 µg/ml)
B8 | binds | no binding (tested: 10 µg/ml)
